Experimental data: US20210355180A1 (published 2021)

Target: T1, biotinylated anti-ABD goat antibody
T1 construct: also called Anti-ABD surface
Assay: SPR (Biacore 2000), periplasm diluted 15x over anti-ABD surface
Source text: SPR analysis of periplasmic samples: A selection of Aβ peptide binding polypeptides was subjected to an analysis of the response against biotinylated hAβ₁₋₄₀ using a Biacore 2000 instrument (GE Healthcare). Biotinylated anti-ABD goat antibody (produced in-house) and N-terminally biotinylated hAβ₁₋₄₀ (AnaSpec cat. no. AS-24648) were immobilized in separate flow cells on a streptavidin coated chip (Biacore Sensor Chip SA, cat. no. BR100032) using HBS-EP as running buffer (0.01 M HEPES pH 7.4, 0.15 M NaCl, 3 mM EDTA, 0.005% v/v Surfactant P20, GE Healthcare, cat. no. BR100188). The ligand immobilization levels on the surfaces were approximately 2000 RU for the anti-ABD antibody and 225 RU for hAβ₁₋₄₀. One flow cell surface on the chip was used as blank during analyte injections. HBS-EP was used as running buffer and the flow rate was 25 μl/min. The analytes, i.e. periplasmic preparations of Aβ peptide binding polypeptides as described above, were each diluted 15× in HBS-EP buffer and injected for 10 min, followed by dissociation in running buffer for 5 min. After dissociation, the surfaces were regenerated with 2 pulses of 10 mM glycin pH 2.0. […]
SPR analysis of periplasmic samples: The interactions of a subset of Z variants with anti-ABD goat antibody and hAβ₁₋₄₀ were analyzed in a Biacore instrument by injecting dilutions of periplasmic samples.

B1: ABD (albumin binding domain GA3 from streptococcal Protein G), periplasm control (other)
chain: LAEAKVLANRELDKYGVSDYYKNLINNAKTVEGVKALIDEILAALP
notes: periplasm containing ABD only; also called negative control
- Response RU: 19.8 RU
